Laboratory results published in patent US20260242478A1 (published 2026).
Where no end group is shown, it is not given here.

molecular target: T1, PSMA Fab; assay: phage ELISA; biotinylated PSMA Fab on neutravidin plate, blocking buffer alone; bound phage detected with anti-M13-HRP
T1 construct: Used biotinylated and captured on neutravidin plates in the phage ELISA; also called Anti-PSMA Fab; 006 PSMA Fab
Experimental: (§1) Clonal phage were harvested as crude supernatants and screened via standard ELISAs. […] Prior to the addition of clonal phage. wells were incubated with blocking buffer and PSMA antigen or blocking buffer alone. Without washing or aspirating, clonal phage supernatants were then added to the wells and incubated for a short time. Wells were then washed followed by detection of bound phage using a horse radish conjugated anti-M13 antibody.

Row | Binder | Phage binding ELISA signal, Anti-PSMA Fab
1 | LYKECVPQWMCSGF (also called Peptide-180 library clone) [Phage-3731] | 1.4
2 | TGMACVPWWMCEGF (also called Peptide-180 library clone) [Phage-3732] | 1.4
3 | FTAQCVPLWMCLGF (also called Peptide-180 library clone) [Phage-3736] | 1.39
4 | FTARCEPSWMCVGF (also called Peptide-180 library clone) [Phage-3730] | 1.41
5 | LLLRCEPTWMCTGF (also called Peptide-180 library clone) [Phage-3740] | 1.39
6 | WTPLCKPLWMCQGL (also called Peptide-180 library clone) [Phage-3741] | 1.39
7 | QVKYCIPEWMCSSF (also called Peptide-180 library clone) [Phage-3735] | 1.4
8 | VQPWCVPSWMCERF (also called Peptide-180 library clone) [Phage-3743] | 1.39
9 | DYSVCRPAWMCQGF (cysteine pairing not given here; also: fused to phage pIII, also called Peptide-180 library clone) [Phage-3729] | 1.41
10 | VNRMCVPVWMCQGF (also called Peptide-180 library clone) [Phage-3739] | 1.39
11 | HSVHCVPMWMCTGF (also called Peptide-180 library clone) [Phage-3738] | 1.39
12 | ADVRCVPDWMCWGM (also called Peptide-180 library clone) [Phage-3733] | 1.4
13 | VSHHCVPAWMCFGL (also called Peptide-180 library clone) [Phage-3737] | 1.39
14 | YSISCVPQWMCEGF (also called Peptide-180 library clone) [Phage-3742] | 1.39
15 | ELPVCRPSWMCGGL (also called Peptide-180 library clone) [Phage-3734] | 1.4

molecular target: T2, 006 PSMA Fab; assay: clonal phage ELISA on captured anti-PSMA Fab; competitor PSMA antigen
T2 construct: also called Anti-PSMA Fab
Experimental: as §1

Row | Binder | phage binding ELISA signal with PSMA antigen present
16 | DMARCIPAWMCTGF [Phage-3523] | 0.106
17 | WFRMCEPSWMCEGF [Phage-3527] | 0.11
18 | ELLHCKPMWMCIGL [Phage-3524] | 0.0864
19 | SAIRCEPLWMCSGL [Phage-3519] | 0.0578
20 | PSISCTPQWMCFGF [Phage-3521] | 0.0639
21 | VSPSCVPPWMCVGF [Phage-3531] | 0.0791
22 | VVPWCSPAWMCSGF [Phage-3529] | 0.0752
23 | GPKICVPMWMCDGF [Phage-3518] | 0.116
24 | VVRHCVPTWMCTGF [Phage-3532] | 0.102
25 | GYVMCEPRWMCEGL [Phage-3528] | 0.0803
26 | ALLSCVPPWMCLGL [Phage-3522] | 0.0728
27 | EVQYCVPAWMCEGF [Phage-3520] | 0.117
28 | EERICKPQWMCSAF [Phage-3530] | 0.0804
29 | LIALCKPPWMCEWF [Phage-3526] | 0.213
30 | YPPLCKPEWMCVGL [Phage-3525] | 0.0714

molecular target: T2, 006 PSMA Fab; assay: clonal phage ELISA on biotinylated anti-PSMA Fab captured on neutravidin, anti-M13 HRP detection
Experimental: as §1

Row | Binder | phage binding ELISA signal
31 | DMARCIPAWMCTGF [Phage-3523] | 1.68
32 | WFRMCEPSWMCEGF [Phage-3527] | 1.67
33 | ELLHCKPMWMCIGL [Phage-3524] | 1.67
34 | SAIRCEPLWMCSGL [Phage-3519] | 1.68
35 | PSISCTPQWMCFGF [Phage-3521] | 1.68
36 | VSPSCVPPWMCVGF [Phage-3531] | 1.66
37 | VVPWCSPAWMCSGF [Phage-3529] | 1.67
38 | GPKICVPMWMCDGF [Phage-3518] | 1.68
39 | VVRHCVPTWMCTGF [Phage-3532] | 1.66
40 | GYVMCEPRWMCEGL [Phage-3528] | 1.67
41 | ALLSCVPPWMCLGL [Phage-3522] | 1.68
42 | EVQYCVPAWMCEGF [Phage-3520] | 1.68
43 | EERICKPQWMCSAF [Phage-3530] | 1.66
44 | LIALCKPPWMCEWF [Phage-3526] | 1.67
45 | YPPLCKPEWMCVGL [Phage-3525] | 1.67

molecular target: T3, PSMA Fab; assay: phage ELISA; biotinylated PSMA Fab on neutravidin plate, blocking buffer alone, anti-M13 HRP detection
T3 construct: also called Anti-PSMA Fab; 006 PSMA Fab
Experimental: as §1

Row | Binder | Phage binding ELISA signal, Anti-PSMA Fab
46 | LEKVCKPMWMCTGF [Phage-3448] | 1.75
47 | YNMICQPQWMCSGF [Phage-3447] | 1.75

molecular target: T4, 006 PSMA Fab; assay: clonal phage ELISA; biotinylated PSMA Fab on neutravidin plate, bound phage detected with anti-M13-HRP
T4 construct: also called Anti-PSMA Fab
Experimental: as §1

Row | Binder | Phage binding ELISA signal, Anti-PSMA Fab
48 | GTQACVPLWMCEGI [Phage-3996] | 0.62
49 | MDVWCVPTWMCQHL [Phage-3995] | 0.627
50 | VQPWCVPAWMCDGL [Phage-3997] | 0.607
51 | QMITCQPKWMCEGF [Phage-3998] | 0.589
52 | VQRVCVPTWMCDVF [Phage-3999] | 0.584

molecular target: T3, PSMA Fab; assay: phage ELISA; biotinylated PSMA Fab on neutravidin plate, pre-incubated with PSMA antigen as competitor, anti-M13 HRP detection
Experimental: as §1

Row | Binder | Phage binding ELISA signal, Anti-PSMA Fab in presence of PSMA
53 | LEKVCKPMWMCTGF [Phage-3448] | 0.0949
54 | YNMICQPQWMCSGF [Phage-3447] | 0.0661

molecular target: T4, 006 PSMA Fab; assay: clonal phage ELISA; biotinylated PSMA Fab on neutravidin plate, PSMA antigen as competitor, anti-M13-HRP
Experimental: as §1

Row | Binder | phage binding ELISA signal (Anti-PSMA Fab, wells pre-incubated with PSMA antigen)
55 | GTQACVPLWMCEGI [Phage-3996] | 0.0787
56 | MDVWCVPTWMCQHL [Phage-3995] | 0.119
57 | VQPWCVPAWMCDGL [Phage-3997] | 0.0983
58 | QMITCQPKWMCEGF [Phage-3998] | 0.0852
59 | VQRVCVPTWMCDVF [Phage-3999] | 0.07

molecular target: T1, PSMA Fab; assay: phage ELISA; biotinylated PSMA Fab on neutravidin plate, pre-incubated with PSMA antigen as competitor; anti-M13-HRP
Experimental: as §1

Row | Binder | Phage binding ELISA signal, Anti-PSMA Fab in presence of PSMA antigen
60 | LYKECVPQWMCSGF (also called Peptide-180 library clone) [Phage-3731] | 0.0798
61 | TGMACVPWWMCEGF (also called Peptide-180 library clone) [Phage-3732] | 0.0812
62 | FTAQCVPLWMCLGF (also called Peptide-180 library clone) [Phage-3736] | 0.0789
63 | FTARCEPSWMCVGF (also called Peptide-180 library clone) [Phage-3730] | 0.0626
64 | LLLRCEPTWMCTGF (also called Peptide-180 library clone) [Phage-3740] | 0.0711
65 | WTPLCKPLWMCQGL (also called Peptide-180 library clone) [Phage-3741] | 0.16
66 | QVKYCIPEWMCSSF (also called Peptide-180 library clone) [Phage-3735] | 0.0671
67 | VQPWCVPSWMCERF (also called Peptide-180 library clone) [Phage-3743] | 0.312
68 | DYSVCRPAWMCQGF (cysteine pairing not given here; also: fused to phage pIII, also called Peptide-180 library clone) [Phage-3729] | 0.0699
69 | VNRMCVPVWMCQGF (also called Peptide-180 library clone) [Phage-3739] | 0.0729
70 | HSVHCVPMWMCTGF (also called Peptide-180 library clone) [Phage-3738] | 0.0781
71 | ADVRCVPDWMCWGM (also called Peptide-180 library clone) [Phage-3733] | 0.0602
72 | VSHHCVPAWMCFGL (also called Peptide-180 library clone) [Phage-3737] | 0.0946
73 | YSISCVPQWMCEGF (also called Peptide-180 library clone) [Phage-3742] | 0.0591
74 | ELPVCRPSWMCGGL (also called Peptide-180 library clone) [Phage-3734] | 0.0603
